Experiments:
[1] = molecular target: His-tagged C-propeptide of the human procollagen α2(I) chain (C1A2His) (human); assay: co-purification (Co2+ affinity by the His-tag of the α2 chain, gel filtration) with SDS-PAGE and MALDI-TOF mass spectrometry; α1 and α2 C-propeptides co-expressed in HEK 293T (plasmids 2:1); hetero-CPI separated from untagged homo-CPI by the His-tag of the α2 chain; with or without removal of the tag by TEV protease; Superdex S200
[2] = molecular target: His-tagged C-propeptide of the human procollagen α1(I) chain (C1A1His), chain of homo-CPI (human); assay: SDS-PAGE (non-reducing and reducing) + MALDI-TOF mass spectrometry; purified homo-CPI; ~85 kDa non-reducing, 30 kDa reducing; disulfide-bonded trimer

Row | stoichiometry N (α1 chains per α2 chain) [1] | stoichiometry N [2] | Substance
1 | 2 | – | Non-tagged C-propeptide of the human procollagen α1(I) chain (C1A1) (domain or fragment)
2 | – | 3 | His-tagged C-propeptide of the human procollagen α1(I) chain (C1A1His), chain of homo-CPI (domain or fragment)
